Laboratory results published in patent publication US9096835B2, “DNA polymerase” (Medical Research Council, priority 2003, dated 2015).

Assays:
[1] = system: primer-template duplex, correct or incorrect incoming dNTP; assay: Steady-state single nucleotide incorporation kinetics, gel-based assay; type: biochemical
Procedure: (§1) Kinetic parameters were determined using a gel-based assay essentially as described (16). Primers 15, 16, 17 (3′ base=G, C, A respectively) were ^32P-labeled and annealed to one of template strands 18, 19, 20 (template base=C, G, A respectively) or 21 (template base C different context). Duplex substrates were used at 50 nM final concentration in 1× Taq buffer with various concentrations of enzyme and dNTP. Reactions were carried out at 60° C. for times whereby <20% of primer-template was utilized at the highest concentration of dNTP.
(§2) Extension and incorporation kinetics of M1 and M4 for a selection of mismatches were measured using a gel-based steady-state kinetic assay (Goodman) (Tables 1 & 2). M1 and M4 respectively extend a C•C mispair 390 and 75-fold more efficiently than wtTaq. […] The gain in extension efficiency derives predominantly from increased relative Vmax values for the mutant polymerases, while Km for nucleotide substrates remains largely unchanged. For most DNA polymerases the relative efficiency of extending a given mispair (f0ext) is similar to the relative efficiency of forming it (finc) (Goodman 1993, Goodman 1990, Washington 2001). Indeed, M1 and M4 respectively incorporate dCTP opposite template base C 206- and 29-fold more efficiently than wtTaq (Table 2).

[2] = system: primer-template duplex with matched or mismatched 3′ terminus; assay: Steady-state extension kinetics, gel-based assay; type: biochemical; conditions: incorporated base is dCTP
Procedure: as §1, §2

[3] = system: primer-template DNA substrates; assay: Processivity primer extension assay with and without trap DNA; type: biochemical
Procedure: Processivity was measured using a primer extension assay the presence and absence of trap DNA. Termination probabilities were calculated according to the method of Kokoska et al.
Oligonucleotide primer 32 (5′-GCGGTGTAGAGACGAGTGCGGAG-3′) (SEQ ID NO: 117) was ^32P-labelled and annealed to the template 33 (5′-CTCTCACAAGCAGCCAGGCAAGCTCCGCACTCGTCTCTACACCGCTCCGC-3′ (SEQ ID NO: 118)) (at a primer/template ratio of molar 1/1.5). wtTaq (0.0025 nM; 0.025 nM; 0.25 nM), M1(0.05 nM; 0.5 nM; 5 nM), and M4 (0.05 nM; 0.5 nM; 5 nM) were preincubated with the primer-template DNA substrates (10 nM) in 10 mM Tris-HCl at pH 9.0, 5 mM MgCl2, 50 mM KCl, 0.1% Triton X 100 at 25° C. for 15 min. Reactions were initiated by addition of 100 μM dNTPs with or without trap DNA (1000-fold excess of unlabeled primer-templates). Reactions were performed at 60° C. for 2 min. […] Thus, in the presence of trap DNA, all DNA synthesis resulted from a single DNA binding event. Gel band intensities were calculated using a Phosphoimager and ImageQuant (both Molecular Dynamics) software. Percentage of polymerase molecules, which extended primers to the end of the template was calculated using the formula: In×100%/(I1+I2+ . . . +In), where In is the intensity of the band at position 22 or 23; I1, I2 . . . is the intensity of the band at position 1, 2 . . . . Termination probabilities (τ) were calculated according to the method of Kokoska et al^1, whereby t at a particular template position was calculated as the intensity of the band at this position divided by the sum of the intensity of this band and the band intensities of all longer products.

[4] = PCR with all four dNTPs replaced by αS dNTPs; type: biochemical; conditions: 50 cycle PCR, 50 μM αS dNTPs
Procedure: A PCR assay was used to screen and rank clones. Briefly, clones were normalized for activity in PCR with matched primers 3, 4 and activity with mismatched primers 1 and 2 (1 μM each) determined at minimal cycle number (15-25 cycles). Extension capability for different mismatches was determined by the same assay using mismatch primers 2 (C•C mismatch), 5 (A•A mismatch), 6 (G•G mismatch), 7 (G•A mismatch) with matched primer 3 or primer 1 (A•G mismatch) with matched primer 4. Incorporation of unnatural substrates in 50 cycle PCR was carried out using standard conditions and 50 μM […] dNTPs (Promega) or 50 μM FITC-12-dATP (Perkin-Elmer), Rhodamine-5-dUTP (Perkin-Elmer) or Biotin-16-dUTP (Roche) with equivalent amounts of the other 3 dNTPs (all 50 μM). Long PCR was carried out using a two-step cycling protocol as described (22) 94° C. for 2 minutes, followed by 20 cycles of (94° C. 15 sec, 68° C. 30 min) using 5 ng of phage λ DNA (New England Biolabs) template and either primers 9, 10, 11 with primer 12 or primer 13 with primers 10, 14.

[5] = target: matched and mismatched primer-template duplex; assay: Template affinity equilibrium binding assay; conditions: not shown
Procedure: An equilibrium binding assay (12) was used to determine relative affinity of polymerases for the mismatched primer-templates used in the kinetics assays. Polymerases were preincubated at 60° C. in 1× Taq buffer with 50 nM ^32P-labeled matched primer-template and 50 nM unlabeled mismatched competitor primer-templates. Reactions were initiated by simultaneous addition of dCTP (200 μM) and trap DNA (XbaI/SalI-restricted sheared salmon sperm DNA, 4.5 mg/ml).

[6] = 3′-terminal base pair C · G (template base: 3′ primer base), matched

wtTaq: Thermus aquaticus (Taq) wild type DNA polymerase [reference compound]
Km ([1]; base pair C: dCTP): 1330 µM
Ratio of finc, finc (mutant polymerase)/finc (wtTaq) ([1]; base pair C: dCTP): 1
finc, f (incorrect dNTP)/f (correct dNTP) ([1]; base pair C: dCTP): 3.86 × 10^−8
Vmax ([1]; base pair C: dCTP (template base: incoming nucleotide)): 3.3 % Min^−1
Vmax ([1]; base pair C: dGTP (template base: incoming nucleotide), correct dNTP): 2356.02 % Min^−1
Km ([1]; base pair C: dGTP, correct dNTP): 0.0366 µM
Km ([1]; base pair G: dATP): 259 µM
Ratio of finc, finc (mutant polymerase)/finc (wtTaq) ([1]; base pair G: dATP): 1
finc, f (incorrect dNTP)/f (correct dNTP) ([1]; base pair G: dATP): 8.27 × 10^−5
Vmax ([1]; base pair G: dATP (template base: incoming nucleotide)): 1973.68 % Min^−1
Vmax ([1]; base pair G: dCTP (template base: incoming nucleotide), correct dNTP): 1477 % Min^−1
Km ([1]; base pair G: dCTP, correct dNTP): 0.016 µM
Km ([1]; base pair G: dGTP): 365 µM
Ratio of finc, finc (mutant polymerase)/finc (wtTaq) ([1]; base pair G: dGTP): 1
finc, f (incorrect dNTP)/f (correct dNTP) ([1]; base pair G: dGTP): 1.7 × 10^−6
Vmax ([1]; base pair G: dGTP (template base: incoming nucleotide)): 57.47 % Min^−1
Km ([1]; base pair G: dTTP): 1.64 µM
Ratio of finc, finc (mutant polymerase)/finc (wtTaq) ([1]; base pair G: dTTP): 1
finc, f (incorrect dNTP)/f (correct dNTP) ([1]; base pair G: dTTP): 1.65 × 10^−4
Vmax ([1]; base pair G: dTTP (template base: incoming nucleotide)): 25.08 % Min^−1
Vmax ([2]; 3′-terminal base pair A · A (template base: 3′ primer base)): 1.7 % Min^−1
Km ([2]; 3′-terminal base pair A · A): 27.3 µM
Ratio of fext, fext (mutant polymerase)/fext (wtTaq) ([2]; 3′-terminal base pair A · A): 1.0
fext, f (mismatched 3′terminus)/f (matched terminus) ([2]; 3′-terminal base pair A · A): 6.7 × 10^−7
Vmax ([2]; 3′-terminal base pair A · G (template base: 3′ primer base)): 28.0 % Min^−1
Km ([2]; 3′-terminal base pair A · G): 45.2 µM
Ratio of fext, fext (mutant polymerase)/fext (wtTaq) ([2]; 3′-terminal base pair A · G): 1.0
fext, f (mismatched 3′terminus)/f (matched terminus) ([2]; 3′-terminal base pair A · G): 2.1 × 10^−7
Vmax ([2]; 3′-terminal base pair C · C (template base: 3′ primer base)): 0.2 % Min^−1
Km ([2]; 3′-terminal base pair C · C): 39.9 µM
Ratio of fext, fext (mutant polymerase)/fext (wtTaq) ([2]; 3′-terminal base pair C · C): 1.0
fext, f (mismatched 3′terminus)/f (matched terminus) ([2]; 3′-terminal base pair C · C): 5.9 × 10^−8
Km [2, 6]: 0.016 µM
Vmax [2, 6]: 1477.0 % Min^−1
Vmax ([2]; 3′-terminal base pair G · A (template base: 3′ primer base)): 1.6 % Min^−1
Km ([2]; 3′-terminal base pair G · A): 32.8 µM
Ratio of fext, fext (mutant polymerase)/fext (wtTaq) ([2]; 3′-terminal base pair G · A): 1.0
fext, f (mismatched 3′terminus)/f (matched terminus) ([2]; 3′-terminal base pair G · A): 5.4 × 10^−7
Vmax ([2]; 3′-terminal base pair G · G (template base: 3′ primer base)): 20.4 % Min^−1
Km ([2]; 3′-terminal base pair G · G): 174 µM
Ratio of fext, fext (mutant polymerase)/fext (wtTaq) ([2]; 3′-terminal base pair G · G): 1.0
fext, f (mismatched 3′terminus)/f (matched terminus) ([2]; 3′-terminal base pair G · G): 1.3 × 10^−6
bound polymerase that extended primers to the end of the template ([3]; in the presence of trap DNA (single DNA binding event)): 13%
termination probability ([3]; positions 6 and 7): 5%
PCR amplification with all four αS dNTPs [4]: failed to generate any amplification products
dissociation constants for matched and mismatched primer-template duplex [5]: indistinguishable
